Reference: patent publication US20260242818A1

Molecular target: barnase (Bacillus amyloliquefaciens) (UniProt P00648)
Assay: cell-based or functional assay

Sequence of UniProt P00648 (P00648 48-157 limits assumed): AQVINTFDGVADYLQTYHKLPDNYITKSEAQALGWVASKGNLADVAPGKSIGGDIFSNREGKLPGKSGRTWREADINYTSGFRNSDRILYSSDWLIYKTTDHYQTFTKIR

barstar (from UniProt P11540 2-90)
pollen formation in F1 anthers (PI staining, confocal microscopy); TA29b::barnase × TA29b::barstar, barstar under the same promoter as barnase (pollen grains): 0 | pollen viability (FDA/PI assay) in successful rescue F1 flowers, TA29b::barnase × TA29a::barstar: 3.6%
